In patent publication US20220017630A1 (JIANGSU SIMCERE PHARMACEUTICAL, published 2022):

T1: mouse TNFR2 (mouse, UniProt P25119 23-258, limits assumed)
T1 sequence (looked up): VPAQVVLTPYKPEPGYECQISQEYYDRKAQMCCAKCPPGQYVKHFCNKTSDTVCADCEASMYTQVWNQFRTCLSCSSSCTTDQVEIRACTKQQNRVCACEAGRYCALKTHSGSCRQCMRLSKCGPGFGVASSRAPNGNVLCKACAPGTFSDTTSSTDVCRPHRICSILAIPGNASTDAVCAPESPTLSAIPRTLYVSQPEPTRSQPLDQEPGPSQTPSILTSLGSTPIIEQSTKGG

T2: human CREG-His protein (human, UniProt O75629 32-220, limits assumed)
T2 construct: Control antigen in ELISA; also called control human CREG-His
T2 sequence (looked up): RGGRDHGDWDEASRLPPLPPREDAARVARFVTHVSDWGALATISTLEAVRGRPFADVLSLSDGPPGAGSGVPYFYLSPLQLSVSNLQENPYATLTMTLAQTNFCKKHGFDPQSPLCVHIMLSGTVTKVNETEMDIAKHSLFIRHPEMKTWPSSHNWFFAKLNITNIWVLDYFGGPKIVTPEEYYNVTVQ

T3: Human TNFR2 recombinant protein (Sino 10417-H08H) (human, UniProt P20333 23-257)
T3 construct: also called hTNFR2 (His tag)
T3 sequence (looked up): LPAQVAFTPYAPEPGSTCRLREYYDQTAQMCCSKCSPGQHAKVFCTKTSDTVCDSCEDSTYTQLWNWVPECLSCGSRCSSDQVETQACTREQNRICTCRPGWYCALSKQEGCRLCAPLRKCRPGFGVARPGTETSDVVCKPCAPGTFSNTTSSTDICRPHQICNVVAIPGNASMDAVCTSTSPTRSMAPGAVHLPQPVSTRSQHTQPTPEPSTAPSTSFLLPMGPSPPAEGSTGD

T4: cynomolgus TNFR2 (Sino 90102-C08H) (cynomolgus, UniProt A0A2K5VET2 132-366)
T4 construct: also called CynoTNFR2 (His tag)
T4 sequence: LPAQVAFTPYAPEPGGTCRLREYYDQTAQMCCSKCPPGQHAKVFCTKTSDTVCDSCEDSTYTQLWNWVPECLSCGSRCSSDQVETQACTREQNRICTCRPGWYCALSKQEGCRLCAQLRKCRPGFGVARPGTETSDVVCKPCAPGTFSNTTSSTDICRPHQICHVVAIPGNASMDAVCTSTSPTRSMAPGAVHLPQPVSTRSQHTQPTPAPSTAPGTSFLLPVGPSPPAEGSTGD

T5: human TNFR2 (Novoprotein, Catalog No. C830) (human, UniProt P20333 23-257, limits assumed)
T5 construct: construct not described; also called TNFR2 protein
T5 sequence (looked up): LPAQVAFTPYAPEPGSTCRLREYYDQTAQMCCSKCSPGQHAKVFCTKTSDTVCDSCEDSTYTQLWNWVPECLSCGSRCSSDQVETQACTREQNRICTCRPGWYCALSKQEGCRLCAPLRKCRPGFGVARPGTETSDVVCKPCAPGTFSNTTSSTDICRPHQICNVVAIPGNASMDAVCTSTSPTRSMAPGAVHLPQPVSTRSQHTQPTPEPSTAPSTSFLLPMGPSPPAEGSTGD

T6: human TNFR2 on the cell surface (CHO-TNFR2 cells; human Treg cells) (human, UniProt P20333 23-461)
T6 construct: whole, on cells; The assay field of each row says which cells; also called TNFR2-CHO cell; TNFR2 on Treg cells
T6 sequence (looked up): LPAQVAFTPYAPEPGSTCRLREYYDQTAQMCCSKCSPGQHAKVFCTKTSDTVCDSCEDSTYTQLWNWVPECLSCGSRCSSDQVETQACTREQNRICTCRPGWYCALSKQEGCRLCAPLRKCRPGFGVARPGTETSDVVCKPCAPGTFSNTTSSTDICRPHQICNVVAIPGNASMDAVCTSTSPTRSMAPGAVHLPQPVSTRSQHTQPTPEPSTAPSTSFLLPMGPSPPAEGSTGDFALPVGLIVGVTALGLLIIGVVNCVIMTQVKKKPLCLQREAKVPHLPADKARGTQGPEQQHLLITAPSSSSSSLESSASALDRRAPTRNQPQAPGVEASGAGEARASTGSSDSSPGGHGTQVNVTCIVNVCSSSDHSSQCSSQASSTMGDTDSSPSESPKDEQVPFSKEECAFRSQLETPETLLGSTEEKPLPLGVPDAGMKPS


What was measured:
[1] = biological target: T1, mouse TNFR2; experiment: ELISA
[2] = biological target: T2, human CREG-His protein; experiment: ELISA
[3] = biological target: T3, Human TNFR2 recombinant protein (Sino …); experiment: ELISA, coated antigen 0.5 ug/ml, antibody 28 ng/ml
Description: (§1) An microplate was pre-coated with 100 μl/well of 0.5 μg/ml human TNFR2 or cynomolgus TNFR2 (the same antigen protein as in Example 4). […] A mouse anti-human IgG Fc-HRP working solution (1:10000 dilution) was added to the plate at 100 μl/well after plate washing, and incubated with shaking at room temperature for 1.0 h. The plate was washed again, a HRP substrate TMB was added for color development prior to the termination of the reaction by adding termination solution. An microplate reader was used to read the absorption value.

[4] = biological target: T4, cynomolgus TNFR2 (Sino 90102-C08H); experiment: ELISA, coated antigen 0.5 ug/ml, antibody 28 ng/ml
Description: as §1

[5] = biological target: T5, human TNFR2 (Novoprotein, Catalog No. …); experiment: blocking ELISA, TNFα-biotin on coated human TNFR2, antibody 2 nM
Description: (§2) A microplate was pre-coated with 100 μl/well of 1 μg/ml human TNFR2 (Novoprotein, Catalog No. C830). […] After washing the plate, a Streptavidin-HRP working solution (1:10000 dilution) was added at 100 μl/well, and incubated with shaking at room temperature for 40 min. The plate was washed again, the HRP substrate TMB was added for color development, the termination solution was added to terminate the reaction, and the microplate reader was used to read the absorption value.

[6] = biological target: T6, human TNFR2 on the cell surface …; experiment: flow cytometry, blocking of TNFα-biotin on CHO-TNFR2 cells
[7] = biological target: T5, human TNFR2 (Novoprotein, Catalog No. …); experiment: blocking ELISA, TNFα-biotin on coated human TNFR2, antibody 20 nM
Description: as §2

[8] = biological target: T6, human TNFR2 on the cell surface …; experiment: flow cytometry, blocking of TNFα-biotin on CHO-TNFR2 cells; AUC for 002# / AUC for antibody x 100
Description: CHO cells that stably overexpressed human TNFR2 were used for experiments. The cells were resuscitated and passaged until in good state, and the expression level of human TNFR2 on the cells was assessed by FACS. Compared to the isotype control, the assay could be carried out when the fold change of mean fluorescence intensity (MFI) was more than 100 times.
CHO-TNFR2 cells were digested, washed twice with DPBS and stained with Live/Dead (L/D) at room temperature for 20 min, and then seeded at 1×10⁵ cells/50 μl/well. […] The diluted antibodies were added 50 μl/well into wells pre-seeded with cells, and gently blown and mixed to make the final concentrations of the antibodies to 20, 6.67, 2.22, 0.74, 0.247, 0.08, 0.027 and 0 nM, respectively followed by incubation at 4° C. for 30 min. […] After washing twice with the staining buffer, 100 μl/well of PE-streptavidin was added and incubated at 4° C. for 30 min. After additional washing with the staining buffer twice, 150 μl resuspended cells was analyzed using an flow cytometry. Taking the logarithmic value of the antibody concentrations as abscissa and the corresponding MFI value as ordinate, the inhibition curve of the antibody was drawn, and the IC50 value was calculated by four parameters fitting.

| binding result [1] | binding result [2] | ELISA OD [3] [OD] | ELISA OD [4] [OD] | ELISA OD of antibodies to be tested (2 nM) [5] [OD] | Antibody AUC [6] | ELISA OD of antibodies to be tested (20 nM) [7] [OD] | AUC % [8] [%] | Binder |
| --- | --- | --- | --- | --- | --- | --- | --- | --- |
| no binding (tested: 28 ng/ml) | no binding (tested: 28 ng/ml) | 3.12 | 3.12 | 1.78 | 10700 | 0.474 | 116 | TNFR2 antibody #352 (antibody, V domains shown) VH: EVQLQESGPGLVAPSQSLSITCTVSGFSLTSYGVHWVRQPPGKGLEWLVVIWSDGGTTYNSALKSRLSISKDNSKSQVFLKMNSLQTDDTAMYYCARHDDDGYYAMDYWGQGTTVTVSS VL: DIVLTQSPSLMSASPGEKVTMTCSASSSVGYMYWYQQKPRSSPKPWIYLTSNLASGVPARFSGSGSGTSYSLTISSMEVEDAATYYCQQWSSDPFTFGSGTKLEIK |
| no binding (tested: 28 ng/ml) | no binding (tested: 28 ng/ml) | 3.19 | 3.15 | 1.26 | 10600 | 0.418 | 117 | TNFR2 antibody #365 (antibody, V domains shown) VH: EVQLQESGPGLVQPSQSLSITCTVSGFSLTSYGVHWVRQSPGKGLEWLGLIWSDGSPDYSAAFISRLSINKDNSKSQVFFKMNSLQADDTAIYYCARNDDGGDYVMDYWGQGTTVTVSS VL: EIVLTQSPALMSASPGEKVTMTCSASSSVSYMYWYQQKPRSSPKPWIYLTSNLASGVPARFSGSGSGTSYSLTISSMEAEDAATYYCQQWTSNPLTFGAGTKLEIK |
| no binding (tested: 28 ng/ml) | no binding (tested: 28 ng/ml) | 3.17 | 3.15 | 1.14 | 14900 | 0.282 | 107 | TNFR2 antibody #395 (antibody, V domains shown) VH: EVQLQESGPVLVQPSQSLSITCTVSGFSLTSYSVHWVRQSPGKGLEWLGVIWSDGGTDYSAAFISRLSISKDNSKSQVFFKMNSLQADDTAIYYCARNDDGGDYAMDYWGQGTTVTVSS VL: EIVLTQSPALMSASPGEKVTMTCSASSSVSYMYWYQQKPRSSPKPWIYLTSNLASGVPARFSGSGSGTSYSLTISSMEAEDAATYYCQQWSSNPLTFGAGTKLEIK |
